Paper PMC8267615

Legend:
[1] = biological target: TREM-1 expressed on the monocyte cell membrane (human (endogenous in monocytes)) (UniProt Q9NP99)
[2] = biological target: TREM-1 expressed on the monocyte cell membrane (human (endogenous in monocytes)) (UniProt Q9NP99); remark: listed apart in the source

Chain of TREM-1 expressed on the monocyte cell membrane (human (endogenous in monocytes)) (Q9NP99 21-234): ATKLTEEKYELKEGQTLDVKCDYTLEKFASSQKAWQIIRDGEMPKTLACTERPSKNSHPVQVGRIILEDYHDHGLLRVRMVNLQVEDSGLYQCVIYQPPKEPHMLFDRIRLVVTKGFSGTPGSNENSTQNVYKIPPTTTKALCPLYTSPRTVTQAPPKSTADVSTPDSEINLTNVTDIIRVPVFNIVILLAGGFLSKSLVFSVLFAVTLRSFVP

Which cytotoxicity against target cells of lymphocytes activated in PBMCs by six-day treatment with rising Hsp70 concentration (half maximal effective concentration) [1] does the source give for “recombinant human Hsp70 (major heat shock protein 70) (from UniProt P0DMV8 1-641) (natural protein)” here?
The cytotoxicity against target cells of lymphocytes activated in PBMCs by six-day treatment with rising Hsp70 concentration (half maximal effective concentration) was 0.5 nM.

What about the inhibition of the cytotoxicity of Hsp70-activated lymphocytes by the TREM-1 inhibitor peptide LP17 (…), against LP17 concentration; not completely suppressed at higher concentration [1] of the same substance?
Its inhibition of the cytotoxicity of Hsp70-activated lymphocytes by the TREM-1 inhibitor peptide LP17 (…), against LP17 concentration; not completely suppressed at higher concentration is 0.01 nM.

What about the cytotoxic activity of NK cells isolated on days four and six from PBMCs incubated with Hsp70 with or without the TREM-1 inhibitor LP17 (no difference on day six) [2] of the same substance?
The cytotoxic activity of NK cells isolated on days four and six from PBMCs incubated with Hsp70 with or without the TREM-1 inhibitor LP17 (no difference on day six) was 40%.
